Experimental data: paper doi:10.1101/2025.03.01.640964 (bioRxiv, 2025)
Ends that are not written are not given here. * marks the point of attachment. Biotin = O=C1N[C@H]2[C@H](CS[C@H]2CCCCC(=O)*)N1

What was measured:
SteC_(210-429) WT = SteC_(210-429) WT (Salmonella Typhimurium strain 14028s, UniProt D0ZIB5 210-429); test: BLI; […] (1 ug/ml) […] (SA) biosensors; […]; Octet Red, 25 °C; 50 mM HEPES pH 7.5, 150 mM NaCl, 10 mM MgCl2, 0.5 mM TCEP, 0.05% Tween-20; […]; details: both partners purified
SteC_(210-429;K256H) = SteC_(210-429;K256H) (Salmonella Typhimurium strain 14028s, UniProt D0ZIB5 210-429, K256H); test: as above; details: both partners purified

B1: N-terminally biotinylated FMNL1 peptide (peptide, UniProt O95466 190-213, looked up)
peptide: Biotin-KGPPSSVPKSRHLTIKLTPAHSRK
- Kd (SteC_(210-429) WT): 7.9 µM
- Kd (SteC_(210-429;K256H)): 22 µM
